Assay results from patent US20230119290A1 (UNIVERSIT T ZU K LN, published 2023).

B1: monomeric wildtype VEGF^165 (moVEGF^165) (ligand, human, UniProt P15692-4 27-191, looked up)
chain: APMAEGGGQNHHEVVKFMDVYQRSYCHPIETLVDIFQEYPDEIEYIFKPSCVPLMRCGGCCNDEGLECVPTEESNITMQIMRIKPHQGQHIGEMSFLQHNKCECRPKKDRARQENPCGPCSERRKHLFVQDPQTCKCSCKNTDSRCKARQLELNERTCRCDKPRR
notes: mature; Expressed from a monomeric construct in HEK293T cells; not shown: N-terminal Strep tag from the expression vector
B2: monomeric PIGF (moPIGF) (ligand, UniProt P49763-2 19-149, looked up, not shown: small tags and cut ends)
chain: LPAVPPQQWALSAGNGSSEVEVVPFQEVWGRSYCRALERLVDVVSEYPSEVEHMFSPSCVSLLRCTGCCGDENLHCVPVETANVTMQLLKIRSGDRPSYVELTFSQHVRCECRPLREKMKPERCGDAVPRR

Tests used:
[1] = target: sFlt-1 (soluble splice variant of VEGF receptor 1) in human serum (human) (UniProt P17948); assay: cell-based or functional assay
[2] = target: sFlt-1 (soluble splice variant of VEGF receptor 1) in human serum (human) (UniProt P17948); assay: adsorption of sFlt-1 from human serum on ligand column (agarose), sFlt-1 ELISA of flow through
[3] = target: sFlt-1 (soluble splice variant of VEGF receptor 1) in human serum (human) (UniProt P17948); assay: adsorption of sFlt-1 from preeclampsia patient serum on agarose column, sFlt-1 ELISA before and after
[4] = target: sFlt-1 (soluble splice variant of VEGF receptor 1) in human serum (human) (UniProt P17948); assay: single run of serum of 10 preeclampsia patients over scVEGF^165 column, sFlt-1 ELISA before and after
[5] = target: T1, VEGF-Trap (chimeric protein of VEGFR-1 domain 2 and VEGFR-2 domain 3 fused to Fc) (UniProt P17948 129-230; P35968 225-327); assay: solid phase ELISA, VEGF/PIGF variant immobilised, VEGF-trap titrated 0.1 to 750 nM, Kd from saturation curve
T1 construct: also called VEGFR1/R2 trap; not shown: Fc segment
Method: ELISA style binding assays were performed as described previously (Agarwal et al., 2012). In brief, 10 µg/ml of recombinant VEGF, PIGF and their mutant variants were individually immobilized together with bovine serum albumin (BSA) on 96 well plate (Transparente Immuno Standardmodule, Thermo scientific, Denmark), while matrix loaded only with BSA served as a control. A binding saturation curve was generated by applying increasing concentrations of VEGFR1/R2 trap ranging from 0,1 to 750 nM, followed by detection of the ligand-receptor complex using a horseradish peroxidase (HRP)-conjugated antibody against the mouse Fc domain of VEGFR1/R2 trap. Luminescence was quantified at optical density (OD) 450 nm using a by spectrophotometer (Thermo ScientificMultiskan GO, Finland).

Chain of sFlt-1 (soluble splice variant of VEGF receptor 1) in human serum (human) (P17948 other isoform, or with tags, fused parts or gaps mutant): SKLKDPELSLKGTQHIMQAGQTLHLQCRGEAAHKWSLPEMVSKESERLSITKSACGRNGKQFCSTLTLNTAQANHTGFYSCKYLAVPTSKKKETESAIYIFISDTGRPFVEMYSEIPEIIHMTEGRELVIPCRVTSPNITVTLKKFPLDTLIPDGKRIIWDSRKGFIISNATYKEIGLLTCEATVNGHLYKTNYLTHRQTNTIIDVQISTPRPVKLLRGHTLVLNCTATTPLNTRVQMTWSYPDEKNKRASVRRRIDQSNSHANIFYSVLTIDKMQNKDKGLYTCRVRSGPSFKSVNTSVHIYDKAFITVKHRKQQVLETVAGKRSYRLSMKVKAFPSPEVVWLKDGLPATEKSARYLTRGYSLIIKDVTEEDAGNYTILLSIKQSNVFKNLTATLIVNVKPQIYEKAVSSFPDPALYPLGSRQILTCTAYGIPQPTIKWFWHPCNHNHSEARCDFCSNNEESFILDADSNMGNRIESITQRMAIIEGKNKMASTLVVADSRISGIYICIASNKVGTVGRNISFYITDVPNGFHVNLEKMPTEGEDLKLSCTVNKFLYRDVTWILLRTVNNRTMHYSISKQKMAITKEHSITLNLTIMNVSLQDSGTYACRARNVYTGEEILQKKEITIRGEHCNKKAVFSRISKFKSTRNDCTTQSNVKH
T1 sequence (P17948 other isoform, or with tags, fused parts or gaps mutant): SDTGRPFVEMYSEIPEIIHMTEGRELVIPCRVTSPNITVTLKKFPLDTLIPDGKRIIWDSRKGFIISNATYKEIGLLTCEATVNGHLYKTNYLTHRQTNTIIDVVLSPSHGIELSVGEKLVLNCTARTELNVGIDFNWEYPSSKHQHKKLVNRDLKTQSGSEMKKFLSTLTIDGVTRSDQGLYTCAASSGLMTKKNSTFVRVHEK

Molecule | PIGF release (free PIGF in serum after against before the column) [1] | PIGF release (free PIGF in serum after against before the column), median [1] | VEGF release (free VEGF in serum after against before the column) [1] | VEGF release (free VEGF in serum after against before the column), median [1] | reduction of sFlt-1 in a single run [2] | reduction of sFlt-1 in a single run [3] | sFlt-1 reduction (mean of 10 patient samples) [4] | sFlt-1 reduction (median of 10 patient samples) [4] | reduction of sFlt-1 in a single passage [3] | fold higher affinity compared to moPIGF [5]
single chain VEGF^165 dimer (scVEGF^165) (from UniProt P49151 27-190) (ligand) | 20 fold | 14.6 fold | 9.07 fold | 8.74 fold | 86.2% | 89.9% | 88% | 92.2% | – | –
B1 | – | – | – | – | – | – | – | – | 77.2% | 2.6 fold
B2 | – | – | – | – | – | – | – | – | 46.2% | –
